Biological target: mcl1_human MCL1 (UniProt Q07820)
Sequence (Q07820 whole entry): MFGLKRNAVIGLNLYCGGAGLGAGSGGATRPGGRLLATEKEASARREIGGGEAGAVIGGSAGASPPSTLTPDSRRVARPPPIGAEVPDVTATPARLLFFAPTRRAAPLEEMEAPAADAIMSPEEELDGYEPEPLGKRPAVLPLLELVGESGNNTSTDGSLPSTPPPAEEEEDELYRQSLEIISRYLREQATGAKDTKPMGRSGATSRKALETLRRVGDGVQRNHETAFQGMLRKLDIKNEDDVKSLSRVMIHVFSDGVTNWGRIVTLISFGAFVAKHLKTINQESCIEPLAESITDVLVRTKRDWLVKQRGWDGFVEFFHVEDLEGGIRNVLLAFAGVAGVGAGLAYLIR

effect of a mutation on the interaction: disrupting interaction
Substance: Ubiquitin carboxyl-terminal hydrolase 9X (Homo sapiens), Q93008 C1566S

From IntAct's records for PubMed 20023629
